Measured values from US20190142971A1, “FORMULATION AND DELIVERY OF MODIFIED NUCLEOSIDE, NUCLEOTIDE, AND NUCLEIC ACID COMPOSITIONS” (ModernaTX, Inc., priority 2013, published 2019).

How the values were obtained:
C57/BL6 mice = test: Example 34: EPO mRNA in buffer IM or SC in mice, serum EPO (Table 60); format: in vivo; conditions: 13 hours post injection
Description: Mice were intramuscularly or subcutaneously injected with 50 μl of the modified human EPO mRNA (h-EPO), modified luciferase mRNA (Luc) or the formulation buffer (F.Buffer) as described in the dosing chart Table 60. 13 hours post injection blood was collected and serum was analyzed to determine the amount human EPO for each mouse or rat.

Sprague-Dawley rats = test: Example 35: duration after IM EPO mRNA in rats, serum EPO (Table 61); format: in vivo;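 note: serum concentration in pg/mL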
Description: The rats were bled 2, 6, 12, 24, 48 and 72 hours after the intramuscular injection to determine the concentration of human EPO in serum at a given time.

[1] = system: peripheral blood mononuclear cells (PBMC); test: Example 46A: percent modification, PBMC G-CSF ELISA (Table 73); format: cell-based, human
Description: 960 ng of G-CSF mRNA modified with 5-methylcytosine (5mC) and pseudouridine (pseudoU) or unmodified G-CSF mRNA was transfected with 0.8 uL of Lipofectamine 2000 into peripheral blood mononuclear cells (PBMC) from three normal blood donors (D1, D2, D3). […] The supernatant was harvested and run by ELISA 22 hours after transfection to determine the protein expression. The expression of IFN-alpha and TNF-alpha may be a secondary effect from the transfection of the G-CSF mRNA.

rats = test: Example 17: LNP IV, IM, SC in rats, serum EPO/G-CSF ELISA (Table 34); format: in vivo; conditions: for EPO / G-CSF Serum Concentration: LNP 0.05 mg/kg
Description: (§1) Formulations, listed in Table 33, were characterized by particle size, zeta potential, and encapsulation.
LNP formulations, shown in Table 33 (above), were administered to rats (n=5) intravenously (IV), intramuscularly (IM) or subcutaneously (SC) at a single modified mRNA dose of 0.05 mg/kg. A control group of rats (n=4) was untreated. […] The rats administered EPO modified mRNA intravenously were also bled at 7 days.

mice = test: Example 18: time course LNP IV in mice, serum EPO/G-CSF ELISA (Table 35); format: in vivo; conditions: for protein expression detectable out to: mice IV; for EPO / G-CSF Serum Concentration: mice, LNP IV
Description: as §1
LNP formulations, shown in Table 33 (above), were administered to mice (n=5) intravenously (IV) at a single modified mRNA dose of 0.5, 0.05 or 0.005 mg/kg. The mice were bled at 8 hours, 24 hours, 72 hours and 6 days after they were administered with G-CSF or EPO modified mRNA formulations to determine protein expression using ELISA.

[2] = system: non-human primates (cynomolgus monkey); test: Example 22: NHP serum chemistry ALT and AST (Tables 45, 46); format: in vivo
[3] = rats IM 100 μg, 24, 48 and 72 hour
[4] = 0.005 mg/kg, 2 days, Female NHP
[5] = 0.005 mg/kg, 4 days, Female NHP
[6] = 0.005 mg/kg, 7 days, Female NHP
[7] = 0.005 mg/kg, 14 days, Female NHP
[8] = 0.005 mg/kg, Pre-dose, Female NHP
[9] = 0.005 mg/kg, Pre-dose, Male NHP
[10] = 0.05 mg/kg, 14 days, Female NHP
[11] = 0.05 mg/kg, Pre-dose, Female NHP
[12] = 0.5 mg/kg, Pre-dose, Female NHP

Luciferase: luciferase mRNA, SEQ ID NO: 14, Cap1, fully modified with 5-methylcytosine and pseudouridine
Average Level in serum (human EPO) (C57/BL6 mice; mice IM, dose 100 μg): 0 pg/mL
Average Level in serum (human EPO) (C57/BL6 mice; mice SC, dose 100 μg): 26.7 pg/mL
human EPO in serum, Avg. (Sprague-Dawley rats; [3]): 37.2 pg/mL
human EPO in serum, Geometric-mean (Sprague-Dawley rats; [3]): 29.2 pg/mL
G-CSF Expression ([1]; PBMC donor D1, 960 ng mRNA): 14.5 pg/mL
G-CSF Expression ([1]; PBMC donor D2, 960 ng mRNA): 3.1 pg/mL
G-CSF Expression ([1]; PBMC donor D3, 960 ng mRNA): 10.0 pg/mL

B1: EPO: modified mRNA encoding human erythropoietin, SEQ ID NO: 7, Cap1, fully modified with 5-methylcytosine and pseudouridine; LNP NPA-060-1 in Examples 17-22 (nucleic acid)
chain: GGGAAAUAAGAGAGAAAAGAAGAGUAAGAAGAAAUAUAAGAGCCACCAUGGGAGUGCACGAGUGUCCCGCGUGGUUGUGGUUGCUGCUGUCGCUCUUGAGCCUCCCACUGGGACUGCCUGUGCUGGGGGCACCACCCAGAUUGAUCUGCGACUCACGGGUACUUGAGAGGUACCUUCUUGAAGCCAAAGAAGCCGAAAACAUCACAACCGGAUGCGCCGAGCACUGCUCCCUCAAUGAGAACAUUACUGUACCGGAUACAAAGGUCAAUUUCUAUGCAUGGAAGAGAAUGGAAGUAGGACAGCAGGCCGUCGAAGUGUGGCAGGGGCUCGCGCUUUUGUCGGAGGCGGUGUUGCGGGGUCAGGCCCUCCUCGUCAACUCAUCACAGCCGUGGGAGCCCCUCCAACUUCAUGUCGAUAAAGCGGUGUCGGGGCUCCGCAGCUUGACGACGUUGCUUCGGGCUCUGGGCGCACAAAAGGAGGCUAUUUCGCCGCCUGACGCGGCCUCCGCGGCACCCCUCCGAACGAUCACCGCGGACACGUUUAGGAAGCUUUUUAGAGUGUACAGCAAUUUCCUCCGCGGAAAGCUGAAAUUGUAUACUGGUGAAGCGUGUAGGACAGGGGAUCGCUGAUAAGCUGCCUUCUGCGGGGCUUGCCUUCUGGCCAUGCCCUUCUUCUCUCCCUUGCACCUGUACCUCUUGGUCUUUGAAUAAAGCCUGAGUAGGAAG
modifications: Cap1, 5-methylcytosine, pseudouridine
protein expression detectable out to (rats; IV): 5 days
EPO / G-CSF Serum Concentration (rats; IM, 2 hours): 1395.4 pg/mL
EPO / G-CSF Serum Concentration (rats; IM, 8 hours): 8974.6 pg/mL
EPO / G-CSF Serum Concentration (rats; IM, 24 hours): 4678.3 pg/mL
EPO / G-CSF Serum Concentration (rats; IV, 2 hours): 36,981.0 pg/ml
EPO / G-CSF Serum Concentration (rats; IV, 8 hours): 62,053.3 pg/ml
EPO / G-CSF Serum Concentration (rats; IV, 24 hours): 42,077.0 pg/ml
EPO / G-CSF Serum Concentration (rats; IV, 48 hours): 5,561.5 pg/ml
EPO / G-CSF Serum Concentration (rats; IV, 5 days): 0.0 pg/mL
EPO / G-CSF Serum Concentration (rats; IV, 7 days): 0.0 pg/mL
EPO / G-CSF Serum Concentration (rats; SC, 2 hours): 386.2 pg/mL
EPO / G-CSF Serum Concentration (rats; SC, 8 hours): 985.6 pg/mL
EPO / G-CSF Serum Concentration (rats; SC, 24 hours): 544.2 pg/mL
protein expression detectable to (rats; subcutaneous and intramuscular): at least 24 hours
protein expression detectable out to (mice): 6 days
protein expression detectable out to (mice; 0.005 mg/kg and 0.05 mg/kg): 3 days
EPO / G-CSF Serum Concentration (mice; 0.005 mg/kg, 8 hours): 12,508.3 pg/ml
EPO / G-CSF Serum Concentration (mice; 0.005 mg/kg, 24 hours): 6,803.0 pg/ml
EPO / G-CSF Serum Concentration (mice; 0.05 mg/kg, 8 hours): 92,139.9 pg/ml
EPO / G-CSF Serum Concentration (mice; 0.05 mg/kg, 24 hours): 54,389.4 pg/ml
EPO / G-CSF Serum Concentration (mice; 0.5 mg/kg, 8 hours): 498,515.3 pg/ml
EPO / G-CSF Serum Concentration (mice; 0.5 mg/kg, 24 hours): 160,566.3 pg/ml
EPO / G-CSF Serum Concentration (mice; 0.5 mg/kg, 72 hours): 3,492.5 pg/ml
EPO / G-CSF Serum Concentration (mice; 0.5 mg/kg, 6 days): 21.2 pg/mL
ALT [2, 4]: 48 U/L
AST [2, 4]: 25 U/L
ALT ([2]; 0.005 mg/kg, 2 days, Male NHP): 62 U/L
AST ([2]; 0.005 mg/kg, 2 days, Male NHP): 29 U/L
ALT [2, 5]: 50 U/L
AST [2, 5]: 55 U/L
ALT ([2]; 0.005 mg/kg, 4 days, Male NHP): 48 U/L
AST ([2]; 0.005 mg/kg, 4 days, Male NHP): 43 U/L
ALT [2, 6]: 48 U/L
AST [2, 6]: 31 U/L
ALT ([2]; 0.005 mg/kg, 7 days, Male NHP): 21 U/L
AST ([2]; 0.005 mg/kg, 7 days, Male NHP): 55 U/L
ALT [2, 7]: 51 U/L
AST [2, 7]: 54 U/L
ALT ([2]; 0.005 mg/kg, 14 days, Male NHP): 43 U/L
AST ([2]; 0.005 mg/kg, 14 days, Male NHP): 35 U/L
ALT [2, 8]: 45 U/L
AST [2, 8]: 40 U/L
ALT [2, 9]: 45 U/L
AST [2, 9]: 39 U/L
ALT ([2]; 0.05 mg/kg, 2 days, Female NHP): 254 U/L
AST ([2]; 0.05 mg/kg, 2 days, Female NHP): 80 U/L
ALT ([2]; 0.05 mg/kg, 2 days, Male NHP): 95 U/L
AST ([2]; 0.05 mg/kg, 2 days, Male NHP): 61 U/L
ALT ([2]; 0.05 mg/kg, 4 days, Female NHP): 200 U/L
AST ([2]; 0.05 mg/kg, 4 days, Female NHP): 94 U/L
ALT ([2]; 0.05 mg/kg, 4 days, Male NHP): 70 U/L
AST ([2]; 0.05 mg/kg, 4 days, Male NHP): 48 U/L
ALT ([2]; 0.05 mg/kg, 7 days, Female NHP): 187 U/L
AST ([2]; 0.05 mg/kg, 7 days, Female NHP): 78 U/L
ALT ([2]; 0.05 mg/kg, 7 days, Male NHP): 64 U/L
AST ([2]; 0.05 mg/kg, 7 days, Male NHP): 53 U/L
ALT [2, 10]: 216 U/L
AST [2, 10]: 47 U/L
ALT ([2]; 0.05 mg/kg, 14 days, Male NHP): 29 U/L
AST ([2]; 0.05 mg/kg, 14 days, Male NHP): 32 U/L
ALT [2, 11]: 160 U/L
AST [2, 11]: 58 U/L
ALT ([2]; 0.05 mg/kg, Pre-dose, Male NHP): 56 U/L
AST ([2]; 0.05 mg/kg, Pre-dose, Male NHP): 74 U/L
ALT ([2]; 0.5 mg/kg, 2 days, Female NHP): 77 U/L
AST ([2]; 0.5 mg/kg, 2 days, Female NHP): 141 U/L
ALT ([2]; 0.5 mg/kg, 2 days, Male NHP): 98 U/L
AST ([2]; 0.5 mg/kg, 2 days, Male NHP): 125 U/L
ALT ([2]; 0.5 mg/kg, 4 days, Female NHP): 87 U/L
AST ([2]; 0.5 mg/kg, 4 days, Female NHP): 60 U/L
ALT ([2]; 0.5 mg/kg, 4 days, Male NHP): 94 U/L
AST ([2]; 0.5 mg/kg, 4 days, Male NHP): 71 U/L
ALT ([2]; 0.5 mg/kg, 7 days, Female NHP): 59 U/L
AST ([2]; 0.5 mg/kg, 7 days, Female NHP): 47 U/L
ALT ([2]; 0.5 mg/kg, 7 days, Male NHP): 60 U/L
AST ([2]; 0.5 mg/kg, 7 days, Male NHP): 56 U/L
ALT ([2]; 0.5 mg/kg, 14 days, Female NHP): 44 U/L
AST ([2]; 0.5 mg/kg, 14 days, Female NHP): 44 U/L
ALT ([2]; 0.5 mg/kg, 14 days, Male NHP): 88 U/L
AST ([2]; 0.5 mg/kg, 14 days, Male NHP): 82 U/L
ALT [2, 12]: 31 U/L
AST [2, 12]: 20 U/L
ALT ([2]; 0.5 mg/kg, Pre-dose, Male NHP): 50 U/L
AST ([2]; 0.5 mg/kg, Pre-dose, Male NHP): 59 U/L
Average Level in serum (human EPO) (C57/BL6 mice; mice IM, dose 1 μg): 2.6 pg/mL
Average Level in serum (human EPO) (C57/BL6 mice; mice IM, dose 10 μg): 25.9 pg/mL
Average Level in serum (human EPO) (C57/BL6 mice; mice IM, dose 25 μg): 18.7 pg/mL
Average Level in serum (human EPO) (C57/BL6 mice; mice IM, dose 50 μg): 63.5 pg/mL
Average Level in serum (human EPO) (C57/BL6 mice; mice IM, dose 100 μg): 96.2 pg/mL
Average Level in serum (human EPO) (C57/BL6 mice; mice SC, dose 100 μg): 72.0 pg/mL
human EPO in serum, Avg. (Sprague-Dawley rats; rats IM 100 μg, 2 hour): 59.6 pg/mL
human EPO in serum, Geometric-mean (Sprague-Dawley rats; rats IM 100 μg, 2 hour): 58.2 pg/mL
human EPO in serum, Avg. (Sprague-Dawley rats; rats IM 100 μg, 6 hour): 68.6 pg/mL
human EPO in serum, Geometric-mean (Sprague-Dawley rats; rats IM 100 μg, 6 hour): 55.8 pg/mL
human EPO in serum, Avg. (Sprague-Dawley rats; rats IM 100 μg, 12 hour): 87.4 pg/mL
human EPO in serum, Geometric-mean (Sprague-Dawley rats; rats IM 100 μg, 12 hour): 84.5 pg/mL
human EPO in serum, Avg. (Sprague-Dawley rats; rats IM 100 μg, 24 hour): 108.6 pg/mL
human EPO in serum, Geometric-mean (Sprague-Dawley rats; rats IM 100 μg, 24 hour): 95.3 pg/mL
human EPO in serum, Avg. (Sprague-Dawley rats; rats IM 100 μg, 48 hour): 77.9 pg/mL
human EPO in serum, Geometric-mean (Sprague-Dawley rats; rats IM 100 μg, 48 hour): 77.0 pg/mL
human EPO in serum, Avg. (Sprague-Dawley rats; rats IM 100 μg, 72 hour): 80.1 pg/mL
human EPO in serum, Geometric-mean (Sprague-Dawley rats; rats IM 100 μg, 72 hour): 75.8 pg/mL
